Data as given in EP4752156A1 (Shanghai Yunxuan Biotechnologies, Inc., dated 2026).

What was measured:
GST-ZZS01 fusion protein [1] = target: T1, GST-ZZS01 fusion protein (UniProt P08515 1-218 = GST); assay: Biacore SPR, 25 C; GST-antigen captured on anti-GST CM5 chip, antibody injected
GST-ZZS01 fusion protein [2] = target: T1, GST-ZZS01 fusion protein; assay: Biacore SPR as in Example 3.3
GST-ZZS05 fusion protein = GST-ZZS05 fusion protein (UniProt P08515 1-218 = GST); assay: Biacore SPR, 25 C; GST-antigen captured on anti-GST CM5 chip, antibody injected
GST-ZZS05 fusion protein, sequence (P08515 1-218, tags or fused parts left off): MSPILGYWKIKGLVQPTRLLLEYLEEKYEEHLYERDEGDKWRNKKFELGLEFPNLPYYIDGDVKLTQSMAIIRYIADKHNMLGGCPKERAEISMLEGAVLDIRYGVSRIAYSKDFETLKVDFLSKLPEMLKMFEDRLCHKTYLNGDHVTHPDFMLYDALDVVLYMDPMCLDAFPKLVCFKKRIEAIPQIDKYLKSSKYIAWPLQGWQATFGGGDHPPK

T1 sequence (P08515 1-218, tags or fused parts left off): as above

B1: murine monoclonal antibody 1D6 (antibody, V domains shown)
VH: QIQLVQSGPELKKPGETVKISCKASGYTFTNYAVNWVIQAPGKGLKWMGWINAYTGEPTYADDFKGRFAFSLETSASTAYLQINNLKNEDMGIYFCARGGYDTYALDYWGQGTSVTVSS
VL: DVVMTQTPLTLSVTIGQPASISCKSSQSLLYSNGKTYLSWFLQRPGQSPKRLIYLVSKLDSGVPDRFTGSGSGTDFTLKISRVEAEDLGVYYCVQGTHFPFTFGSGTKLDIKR
notes: also called 106 (anti-zzs01); ID6
GST-ZZS01 fusion protein [1]
  Kd: 4.82 nM
  koff: 1.19e-05 s⁻¹
  kon: 2480 M⁻¹ s⁻¹

B2: h4 (antibody, V domains shown)
VH: QVQLVESGGGLVKPGGSLRLSCAASGFTFSDHYMSWIRQTPGKGLEWVSYISSSGTYTNYADSVKGRFIISRDNAKNSLFLQMNSLRAEDTAVYYCAREGSPGGQGTLVTVSS
VL: DVVMTQSPLSLPVTLGQPASISCRSSQSLVFSDGNTYLNWFQQRPGQSPRRLIYKVSDRDPGVPERFSGSGSGTDFTLKISRVEAEDIGVYYCMQGSHWPFTFGPGTKVDIKR
GST-ZZS01 fusion protein [2]
  Kd: 2.86 nM

B3: h5 (antibody, V domains shown)
VH: QVQLVESGGGLVKPGGSLRLSCAASGFTFSDHYMSWIRQAPGKGLEWVAYISSSSTYTKYGDSVKGRFTISRDNAKNSLYLQMNSLRAEDTAVYYCAREGSPGGQGTLVTVSS
VL: DVVMTQSPLSLPVTLGQPASISCRSSQSLVFSDGNTYLSWFQQRPGQSPRRLIFKVSDRDSGVPDRFSGSGSGTDFTLKISRMEAEDVGVYYCMQGTQWPFTFGPGTKVDIKR
GST-ZZS01 fusion protein [2]
  Kd: 10.1 nM

B4: h19 (antibody, V domains shown)
VH: QVQLVESGGGLVKPGGSLRLSCAASGFSFSDSYMSWIRQAPGKGLEWVSYISSSSSYTNYADSVKGRFTISRDNAKNSLYLQMNSLRVEDTAVYYCAREGSPGGQGTLVTVSS
VL: DVVLTQSPLSLPVTLGQPASISCRSSQSLVDSDGNTYLSWFQQRPGQSPRRLIYRVSNRDSGVPDRFSGSGSGTDFTLKISRVEAEDVGVYYCMQGTHWPFTFGPGTKVDIKR
GST-ZZS01 fusion protein [2]
  Kd: 3.53 nM

B5: h10 (antibody, V domains shown)
VH: QVQLVESGGGLVKPGGSLRLSCEASGFTFSAHYMSWIRQAPGKGLEYVSYISSSSSYTNYVDSVKGRFTISRDNAKNSLYLQMNSLRVEDTAVYYCAREGSPGGQGTLVTVSS
VL: DVVLTQSPLSLPVTLGQPASISCRSSQSLVDSDGNTYLSWFHQRPGQSPRRLIYKVSDRDSGVPDRFSGSGSGTDFTLKISRVEAEDVGVYYCMEGTHWPFTFGPGTKVDIKR
GST-ZZS01 fusion protein [2]
  Kd: 0.0847 nM

B6: h11 (antibody, V domains shown)
VH: QVQLVESGGGLVKPGGSLRLSCEASGFTFSAHYMSWIRQAPGKGLEYVSYISGSSSYTNYVDSVKGRFTISRDNAKNSLYLQMNSLRVEDTAVYYCAREGSPGGQGTLVTVSS
VL: DVVLTQSPLSLPVTLGQPASISCRSSQSLVDSDGNTYLSWFHQRPGQSPRRLIYKVSDRDSGVPDRFSGSGSGTDFTLKISRVEAEDVGVYYCMEGTHWPFTFGPGTKVDIKR
GST-ZZS01 fusion protein [2]
  Kd: 0.652 nM

B7: h13 (antibody, V domains shown)
VH: QVQLVESGGGLVKPGGSLRLSCAASGFSFSDSYMSWLRQAPGKGLEWVSYISSSSSYTKYADSVKGRFTISRDNAKNSLYLQMNSLRAEDTAVYYCAREGSPGGQGTLVTVSS
VL: DVVLTQSPLSLPVTLGQPASFSCRSSQSLVFTDGNTFLSWFLQRPGQSPRRLIYRVSNRDPGVPDRFSGSGSGTDFTLKISRVEAEDVGVYYCMQGTQWPFTFGPGTKVDIKR
GST-ZZS01 fusion protein [2]
  Kd: 3.66 nM

B8: h15 (antibody, V domains shown)
VH: QVQLVESGGGLVRPGGSLRLSCAASGFTFSDHYMSWIRQAPGKGLEWVSYISGSSSYTKYADSVKGRFTISRDNAKNSLYLQMNSLRAEDTAVYYCAREGSPGGQGTLVTVSS
VL: DVVLTQSPLSLPVTLGQPASISCRSSQSLVFSDGNTFLAWFQQRPGQSPRRLIYRISNRDSGVPDRFSGSGSDTDFTLKISRVEAEDVGVYYCMQGTQWPFTFGPGTKVDIKR
GST-ZZS01 fusion protein [2]
  Kd: 5.78 nM

B9: h16 (antibody, V domains shown)
VH: QVQLVESGGGLVKPGGSLRLSCEASGFTFSAHYMSWIRQAPGKGLEYVSYISSSSSYTNYADSVKGRFTISRDNAKNSLYLQMNSLRAEDTAVYYCAREGSPGGQGTLVTVSS
VL: DVVLTQSPLSLPVTLGQPASISCRSSQSLVDSDGNTYLSWFHQRPGQSPRRLIYKVSDRDSGVPDRFSGSGSGTDFTLKISRVEAEDVGVYYCMEGTHWPFTFGPGTKVDIKR
GST-ZZS01 fusion protein [2]
  Kd: 2.17 nM

B10: h20 (antibody, V domains shown)
VH: QVQLVESGGGLVKPGGSLRLSCAASGFSFSDSYMSWIRQAPGKGLEWVSYISSSSSYTNYVDSVKGRFTISRDNAKNSLYLQMNSLRVEDTAVYYCAREGSPGGQGTLVTVSS
VL: DVVMTQSPLSLPVTLGQPASISCRSSQSLVDSDGNTYLSWFQQRPGQSPRRLIYRVSNRDSGVPDRFSGSGSGTDFTLKISRVEAEDVGVYYCMQGTHWPFTFGPGTKVDIRR
GST-ZZS01 fusion protein [2]
  Kd: 2 nM

B11: h12 (antibody, V domains shown)
VH: QVQLVESGGGLVKPGGSLRLSCAASGFSFSDSYMSWLRQAPGKGLEWVSYISSSSSYTKYTDSVKGRFTISRDNAKNSLYLQMSSLRAEDTAVYYCAREGSPGGQGTLVTVSS
VL: DVVMTQSPLSLPVTLGQPASFSCRSSQSLVFTDGNTFLSWFLQRPGQSPRRLIYRVSNRDPGVPDRFSGSGSGTDFTLKISRVEAEDVGVYYCMQGTQWPFTFGPGTKVDIKR
GST-ZZS01 fusion protein [2]
  Kd: 6.03 nM

B12: h14 (antibody, V domains shown)
VH: QVQLVESGGGLVEPGGSLRLSCAASGFTFSDHYMSWIRQAPGRGLEWVSYISNSGGYTNYADSVKGRFTISRDNAKNSLYLQMNSLRAEDTAVYYCAREGSPGGQGTLVTVSS
VL: DVVMTQSPLSLPVTLGQPASMSCRSSQSLVDSDGNTYLSWFQQRPGQSPRRLIYKVSDRDSGVPDRFSGGGSGTDFTLKISRVEAEDVGIYYCMQGTRWPFTFGPGTKVDIKR
GST-ZZS01 fusion protein [2]
  Kd: 4.39 nM

B13: h17 (antibody, V domains shown)
VH: QVQLVESGGGLVEPGGSLRLSCAASGFTFSDHYMSWIRQAPGRGLEWVSYISNSGGYTNYADSVKGRFTISRDNAKNSLYLQMNSLRAEDTAVYYCAREGSPGGQGTLVTVSS
VL: DVVMTQSPLSLPVTLGQPASMSCRSSQSLVDSDGNTYLSWFQQRPGQSPRRLIYKVSDRDSGVPDRFSGGGSGTDFTLKIRRVEAEDVGIYYCMQGTRWPFTFGPGTKVDIKR
GST-ZZS01 fusion protein [2]
  Kd: 3.18 nM

B14: 18 (antibody, V domains shown)
VH: QVQLVESGGGLVKPGGSLRLSCAASGFTFSASYMSWIRQAPGKGLEWVSYISSSSTYTNYADSVKGRFTISRDNAKNSLYLQMDSLRAEDTAMYFCAREGSPGGQGTLVTVSS
VL: DVVMTQSPLSLPVTLGQSASISCRSSQSLVYSDGDTFLSWFQQRPGQSPRRLIYMVSNRDPGVPDRFSGSGSGTDFTLKISRVEAEDVGIYYCMQGTNWPFTFGPGTRVDIKR
GST-ZZS01 fusion protein [2]
  Kd: 3.46 nM

B15: h21 (antibody, V domains shown)
VH: QVQLVESGGGLVKPGGSLRLSCAASGFTFSAHYMSWIRQAPGKGLEWVSYISPSSSYTVYADSVKGRFTISRDNAKNSLFLQMNSLRAEDTAVYYCAREGSPGGQGTLVTVSS
VL: DVVMTQSPLSLPVTLGQPASISCRSTQSLVDSDGNTYLSWFQQRPGQSPRRLIYKVSDRDSGVPDRFSGSGSGTDFTLKISRVEAEDIGIYYCMQGTHWPFTFGPGTKVDIKR
GST-ZZS01 fusion protein [2]
  Kd: 1.48 nM

B16: h22 (antibody, V domains shown)
VH: QVQLVESGGGLVKPGGSLRLSCAASGFTFSAHYMSWIRQAPGKGLEWVSYISPSSSYTVYADSVKGRFTISRDNAKNSLFLQMNSLRAEDTAVYYCAREGSPGGQGTLVTVSS
VL: DVVMTQSPLSLPVTLGQPASISCRSSQNLVDSDGNTYLSWFQQRPGQSPRRLIYKVSDRDSGVPDRFSGSGSGTDFTLKINRVEAEDIGIYYCMQGSHWPFTFGPGTKVDIKR
GST-ZZS01 fusion protein [2]
  Kd: 0.104 nM

B17: h25 (antibody, V domains shown)
VH: EVQLVESGGGLVKRGGSLRLSCAASGFTFSSYSMHWVRQAPGKGLEWVSSISSRSTYIYYADSVKGRFTISRDNAKNSLYLQMNSLSAEDTAVYYCARGSGSYYVFDYWGQGTLVTVSS
VL: ELVMTQSPATLSVSPGERATLSCRASQSVSSNLAWYQQKPGQAPRLLIYGASSRATNIPARFSGSGSGTEFTLTISSLQSEDFAVYYCQQYDNWPMYSFGQGTKLEIKR
GST-ZZS01 fusion protein [2]
  Kd: 0.32 nM

B18: h1 (antibody, V domains shown)
VH: EVQLVESGGGLVKPGGSLRLSCAASGFTFSSYSMSWVRQAPGKGLEWVSSISSRSNYIYYADSVKGRFTISRDNAKNSLYLQVNSLRAEDTAVYYCARGSGSYYVFDYWGQGTLVTVSS
VL: EIVMTQSPATLSVSPGDRATLSCRASQSISSDLAWYQQKPGQAPRLLIYAASTRATGFPARFSGSGSGTEFTLTISSLQPEDFAVYYCQQYNNWPMYAFGQGTKLEIKR
GST-ZZS01 fusion protein [2]
  Kd: 0.289 nM

B19: h27 (antibody, V domains shown)
VH: EVQLVESGGGLVKPGGSLRLSCAASGFTFSSYSMSWVRQAPGKGLEWVSSISSRSNYIYYADSVKGRITISRDNAKNSLYLQMNSLRAEDTAVYYCARGSGSYYVFDYWGQGTLVTVSS
VL: ELVMTQSPATLSMSPGDRATLSCRASQSIRSDLAWYQQKPGQAPRLLIYDASTRATGIPARFSGSGSGTEFTLSISSLQSEDFAVYYCQQYNNWPMYTFGQGTKLEIKR
GST-ZZS01 fusion protein [2]
  Kd: 0.16 nM

B20: murine monoclonal antibody F11 (antibody, V domains shown)
VH: EVQLQQSGPELVKPGASVKISCKTSGYTFTEYTMHWVKQSHGKTLEWIGGIYPNNSGTRYNQKFRGKATLTADKSSSTAYMELRSLTTEDSAVYYCHRYELYWYFDVWGAGTTVTVSS
VL: DIVLTQSPASLAVSLGQRATISCRASKSVSTAGYSYMHWYQQKPGQPPKLLIYLTSNLESGVPARFSGSGSGTDFTLNIHPVEEEDAATYYCQHSREVPYTFGGGTKLEIKR
notes: also called F11 (anti-zzs05)
GST-ZZS05 fusion protein
  Kd: 6.9 nM
  koff: 0.000949 s⁻¹
  kon: 137000 M⁻¹ s⁻¹

B21: h2 (antibody, V domains shown)
VH: QVQLVESGGGLVKPGGSLRLSCAASGFTFSAHYMSWIRQAPGKGLEWVSYISPSSSYTVYADSVKGRFTISRDNAKNSLFLQMNSLRAEDTAVYYCAREGSPGGQGTLVTVSS
VL: DVVMTQSPLSLPVTLGQPASISCRPSQSLVDSDGNTYLSWFQQRPGQSPRRLIYKVSDRDSGVPDRFSGSGSVTDFTLKISRVEAEDVGIYYCMQGTHWPFTFGPGTKVDIKR
GST-ZZS01 fusion protein [2]
  Kd: 5.24 nM
